From the supplement of paper PMC9112550, “Optimization of the antimicrobial peptide Bac7 by deep mutational scanning” (BMC Biology, 2022) come the findings set out here.
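Further: peptides expressed intracellularly from a pBAD plasmid library in pooled LB shake-flask culture, induced with 0.3% L-arabinose, DNA abundance read by NGS, three biological replicates, DESeq2 with apeglm shrinkage.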

This data set concerns Escherichia coli TOP10. As to the kind of experiment: shrunken log2 fold change of peptide-encoding DNA abundance (4.5 h post-induction vs induction); higher = less antimicrobial activity (less host growth inhibition). As to conditions: time post-induction: 4.5 h; library: site-saturation at positions 5, 18, 19, 20.
Consider RRIRPRPPRLPRPRPRPTTMPRP, for which the “shrunken log2 fold change” value was -0.126.
The result for RRIRNRPPRLPRPRPRPNTEPRP reads -0.206.
For the sequence RRIRKRPPRLPRPRPRPDWIPRP, the “shrunken log2 fold change” value was -0.0252.
Regarding RRIRMRPPRLPRPRPRPTRTPRP, the “shrunken log2 fold change” value was found to be 2.22.
RRIRPRPPRLPRPRPRPRVRPRP: the “shrunken log2 fold change” value worked out at 0.217.
The result for RRIRARPPRLPRPRPRPFSQPRP reads -0.0436; that for RRIRMRPPRLPRPRPRPWVTPRP, -0.15.
The result for RRIRARPPRLPRPRPRPNQPPRP reads 0.0397; that for RRIRGRPPRLPRPRPRPYRLPRP, -0.233.
For RRIRIRPPRLPRPRPRPLGCPRP, the “shrunken log2 fold change” value was -0.0574.
The result for RRIRCRPPRLPRPRPRPCIFPRP reads -0.396.
The result for RRIRMRPPRLPRPRPRPFWWPRP reads 0.158; that for RRIRYRPPRLPRPRPRPDPMPRP, -0.0159.
The result for RRIRQRPPRLPRPRPRPSWVPRP reads -0.0385; that for RRIRWRPPRLPRPRPRPATKPRP, 0.273; that for RRIRFRPPRLPRPRPRPYYHPRP, -0.146.
For RRIRARPPRLPRPRPRPIPMPRP, the “shrunken log2 fold change” value was 0.0374.
The result for RRIRTRPPRLPRPRPRPKEAPRP reads 0.00564; that for RRIRNRPPRLPRPRPRPTQHPRP, 0.0469.
The result for RRIRKRPPRLPRPRPRPIETPRP reads 0.00938; that for RRIRQRPPRLPRPRPRPNIKPRP, -0.558.
For RRIRGRPPRLPRPRPRPHSAPRP, the “shrunken log2 fold change” value was 0.0365.
The result for RRIRQRPPRLPRPRPRPVATPRP reads -0.00506.
The result for RRIRCRPPRLPRPRPRPFMPPRP reads -0.402; that for RRIRWRPPRLPRPRPRPPIMPRP, 0.271; that for RRIRSRPPRLPRPRPRPDICPRP, -0.0721.
The result for RRIRLRPPRLPRPRPRPAIHPRP reads -0.192; that for RRIRYRPPRLPRPRPRPYLWPRP, -0.777.
On to RRIRSRPPRLPRPRPRPLSNPRP, for which the “shrunken log2 fold change” value is -0.00773.
The result for RRIRHRPPRLPRPRPRPEMAPRP reads 0.253.
The result for RRIRARPPRLPRPRPRPHDVPRP reads 0.0276; that for RRIRARPPRLPRPRPRPHMSPRP, -0.181.
The result for RRIRSRPPRLPRPRPRPDKFPRP reads -0.143; that for RRIRDRPPRLPRPRPRPGQAPRP, 0.0989.
In the case of RRIRWRPPRLPRPRPRPISCPRP, the “shrunken log2 fold change” value was -0.0467.
The result for RRIRVRPPRLPRPRPRPSQSPRP reads -0.146.
Turning to RRIRDRPPRLPRPRPRPCSKPRP, the “shrunken log2 fold change” value was determined as 0.0354.
The result for RRIRMRPPRLPRPRPRPSWEPRP reads 0.302; that for RRIRKRPPRLPRPRPRPWGDPRP, 0.499.
The result for RRIRRRPPRLPRPRPRPYMNPRP reads -0.621; that for RRIRLRPPRLPRPRPRPTLNPRP, -0.0428.
The result for RRIRTRPPRLPRPRPRPYVAPRP reads -0.562.
As to RRIRRRPPRLPRPRPRPVDGPRP, the “shrunken log2 fold change” value is 0.576.
The result for RRIRMRPPRLPRPRPRPQAYPRP reads -0.0933.
The result for RRIRARPPRLPRPRPRPPLTPRP reads 0.536; that for RRIRHRPPRLPRPRPRPFYKPRP, -0.774.
Consider RRIRGRPPRLPRPRPRPPENPRP, for which the “shrunken log2 fold change” value was 1.11.
The result for RRIRWRPPRLPRPRPRPAFKPRP reads -0.00397; that for RRIRYRPPRLPRPRPRPEGVPRP, -0.0041; that for RRIRGRPPRLPRPRPRPRLKPRP, 0.777.
For RRIRNRPPRLPRPRPRPQPWPRP, the “shrunken log2 fold change” value is -0.00313.
The result for RRIRSRPPRLPRPRPRPVYIPRP reads -0.124.
The result for RRIRVRPPRLPRPRPRPIRSPRP reads -0.125; that for RRIRCRPPRLPRPRPRPMHHPRP, -0.796.
The result for RRIRYRPPRLPRPRPRPALSPRP reads -0.0367; that for RRIRIRPPRLPRPRPRPAPWPRP, 0.0917; that for RRIRCRPPRLPRPRPRPMVWPRP, 0.412.
Consider RRIRNRPPRLPRPRPRPGCPPRP, for which the “shrunken log2 fold change” value was -0.055.
As to RRIRGRPPRLPRPRPRPGLVPRP, the “shrunken log2 fold change” value was determined as 0.848.
Turning to RRIRNRPPRLPRPRPRPCPTPRP, the “shrunken log2 fold change” value was -0.0624.
The result for RRIRWRPPRLPRPRPRPHEGPRP reads -0.102; that for RRIRTRPPRLPRPRPRPWNSPRP, -0.0351.
For RRIRKRPPRLPRPRPRPHRPPRP, the “shrunken log2 fold change” value is 0.172.
The result for RRIRERPPRLPRPRPRPYVYPRP reads -0.296; that for RRIRCRPPRLPRPRPRPHYGPRP, -0.189.
The result for RRIRSRPPRLPRPRPRPQIMPRP reads 1.11; that for RRIRFRPPRLPRPRPRPQIRPRP, -0.231.
The result for RRIRERPPRLPRPRPRPCCSPRP reads -0.52.
Regarding RRIRHRPPRLPRPRPRPSVTPRP, the “shrunken log2 fold change” value was -0.453.
The result for RRIRWRPPRLPRPRPRPHQWPRP reads -0.0271; that for RRIRMRPPRLPRPRPRPNGYPRP, 0.0495.
RRIRGRPPRLPRPRPRPFHLPRP: the “shrunken log2 fold change” value is -0.391.
For RRIRWRPPRLPRPRPRPDMDPRP, the “shrunken log2 fold change” value was determined as 0.0441.
The result for RRIRKRPPRLPRPRPRPTMTPRP reads 0.608; that for RRIRERPPRLPRPRPRPECEPRP, 0.318.
The result for RRIRYRPPRLPRPRPRPKKMPRP reads -0.374.
The result for RRIRPRPPRLPRPRPRPVTIPRP reads -0.344; that for RRIRWRPPRLPRPRPRPAVTPRP, 0.599.
As for RRIRVRPPRLPRPRPRPVQAPRP, the “shrunken log2 fold change” value is -0.0106.
RRIRRRPPRLPRPRPRPDFWPRP: the “shrunken log2 fold change” value turned out to be 0.647.
The result for RRIRTRPPRLPRPRPRPRLVPRP reads 0.0412; that for RRIRARPPRLPRPRPRPSWWPRP, 0.695.
The result for RRIRFRPPRLPRPRPRPRLAPRP reads 0.69; that for RRIRHRPPRLPRPRPRPKFLPRP, 0.0327.
The result for RRIRNRPPRLPRPRPRPDDIPRP reads 0.0399; that for RRIRKRPPRLPRPRPRPRCCPRP, 0.491.
For RRIRMRPPRLPRPRPRPAHYPRP, the “shrunken log2 fold change” value is -0.248.
For RRIRKRPPRLPRPRPRPNTAPRP, the “shrunken log2 fold change” value amounted to 0.159.
The result for RRIRKRPPRLPRPRPRPVCLPRP reads 0.0948; that for RRIRQRPPRLPRPRPRPGIYPRP, -0.0206.
The result for RRIRVRPPRLPRPRPRPDLLPRP reads -0.224.
